29 molecules from paper PMC9352680, “A comprehensive thermodynamic model for RNA binding by the Saccharomyces cerevisiae Pumilio protein PUF4” can be followed below.

As usually defined, the Kd is the equilibrium constant for the complex coming apart. A high value points to a looser complex.

Sequences and labels used below:
T1: PUF4 RNA-binding domain (Saccharomyces cerevisiae, UniProt P25339 537-888)
T1 sequence: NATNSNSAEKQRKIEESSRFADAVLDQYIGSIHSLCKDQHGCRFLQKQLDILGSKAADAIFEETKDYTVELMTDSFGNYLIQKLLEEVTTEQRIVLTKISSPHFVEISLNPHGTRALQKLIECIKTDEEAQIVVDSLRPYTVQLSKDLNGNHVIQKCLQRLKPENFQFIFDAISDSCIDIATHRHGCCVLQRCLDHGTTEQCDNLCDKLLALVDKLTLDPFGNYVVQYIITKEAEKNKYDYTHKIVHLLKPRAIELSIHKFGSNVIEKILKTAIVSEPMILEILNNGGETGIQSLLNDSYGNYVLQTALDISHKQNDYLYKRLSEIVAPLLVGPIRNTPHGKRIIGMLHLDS

B1: Id_ii_S3_P3E.3_K3.2_C3.2_[C-2T]_[T-1C]_H3.2_A3.1_F3.1_T3.2_[T9A]_[A10C] (ssRNA)
RNA: ACAAACUCUAUAUAUAACACAAAC
B2: Id_ii_S3_P3E.3_K3.2_C3.2_[C-2G]_[T-1A]_H3.2_A3.1_F3.1_T3.2_[T9A] (ssRNA)
RNA: ACAAACGAUAUAUAUAAAACAAAC
B3: Id_ii_S3_P3E.3_K3.2_C3.2_[C-2T]_H3.2_A3.1_F3.1_T3.2 (ssRNA)
RNA: ACAAACUUUAUAUAUAUAACAAAC
B4: Id_ii_S3_P3E.3_K3.2_C3.2_[C-2T]_[T-1C]_H3.2_A3.1_F3.1_T3.2_[T9A] (ssRNA)
RNA: ACAAACUCUAUAUAUAAAACAAAC
B5: Id_ii_S3_P3E.3_K3.2_C3.2_[C-2G]_[T-1C]_H3.2_A3.1_F3.1_T3.2_[A10T] (ssRNA)
RNA: ACAAACGCUAUAUAUAUUACAAAC
B6: Id_ii_S3_P3E.3_K3.2_C3.2_[C-2T]_H3.2_A3.1_F3.1_T3.2_[T9C] (ssRNA)
RNA: ACAAACUUUAUAUAUACAACAAAC
B7: Id_ii_S3_P3E.3_K3.2_C3.2_[C-2A]_[T-1C]_H3.2_A3.1_F3.1_T3.2_[T9C]_[A10G] (ssRNA)
RNA: ACAAACACUAUAUAUACGACAAAC
B8: Id_ii_S3_P3E.3_K3.2_C3.2_[C-2G]_[T-1G]_H3.2_A3.1_F3.1_T3.2_[T9A]_[A10C] (ssRNA)
RNA: ACAAACGGUAUAUAUAACACAAAC
B9: Id_ii_S3_P3E.3_K3.2_C3.2_[C-2G]_[T-1A]_H3.2_A3.1_F3.1_T3.2_[T9G]_[A10G] (ssRNA)
RNA: ACAAACGAUAUAUAUAGGACAAAC
B10: Id_ii_S3_P3E.3_K3.2_C3.2_[C-2G]_[T-1A]_H3.2_A3.1_F3.1_T3.2_[T9C] (ssRNA)
RNA: ACAAACGAUAUAUAUACAACAAAC
B11: Ib_S1_P5E.1_K5.1_C5.1_H5.1_A5.1_[A7G]_F5.1_[T9C]_T5.1 (ssRNA)
RNA: UCUCUUUGUAUUGUCAUCUCUU
B12: Id_ii_S3_P3E.3_K3.2_C3.2_[C-2G]_[T-1C]_H3.2_A3.1_F3.1_T3.2_[T9C]_[A10T] (ssRNA)
RNA: ACAAACGCUAUAUAUACUACAAAC
B13: Id_ii_S3_P3E.3_K3.2_C3.2_[C-2G]_[T-1C]_H3.2_A3.1_F3.1_T3.2_[T9A]_[A10C] (ssRNA)
RNA: ACAAACGCUAUAUAUAACACAAAC
B14: Id_ii_S3_P3E.3_K3.2_C3.2_[C-2G]_[T-1A]_H3.2_A3.1_F3.1_T3.2_[T9A]_[A10C] (ssRNA)
RNA: ACAAACGAUAUAUAUAACACAAAC
B15: Id_ii_S3_P3E.3_K3.2_C3.2_[C-2G]_[T-1G]_H3.2_A3.1_F3.1_T3.2_[A10G] (ssRNA)
RNA: ACAAACGGUAUAUAUAUGACAAAC
B16: Id_ii_S2_P5E.4_K5.3_C5.2_[T-1A]_H5.3_A5.1_F5.1_T5.2 (ssRNA)
RNA: UUUGAUUAAUAUGAUAUCGUUCUUUCUCAACACUUAUUAUAUUCUUUCUCGAUAUCAUAUUAAUCUUU
B17: Id_ii_S2_P5E.4_K5.3_C5.2_H5.3_A5.1_F5.1_T5.2_[T11A]_[A12T] (ssRNA)
RNA: B16 RNA with A29U, U40A, A41U
B18: Id_ii_S2_P5E.4_K5.3_C5.2_H5.3_A5.1_F5.1_T5.2_[T11C] (ssRNA)
RNA: B16 RNA with A29U, U40C
B19: Id_ii_S2_P5E.4_K5.3_C5.2_H5.3_A5.1_F5.1_T5.2_[T11C]_[A12T] (ssRNA)
RNA: B16 RNA with A29U, U40C, A41U
B20: Id_ii_S2_P5E.4_K5.3_C5.2_H5.3_A5.1_F5.1_T5.2_[A12C] (ssRNA)
RNA: B16 RNA with A29U, A41C
B21: Id_ii_S2_P5E.4_K5.3_C5.2_H5.3_A5.1_F5.1_T5.2_[T11A]_[A12C] (ssRNA)
RNA: B16 RNA with A29U, U40A, A41C
B22: Id_ii_S2_P5E.4_K5.3_C5.2_H5.3_A5.1_F5.1_T5.2_[A12T] (ssRNA)
RNA: B16 RNA with A29U, A41U
B23: Id_ii_S2_P5E.4_K5.3_C5.2_H5.3_A5.1_F5.1_T5.2 (ssRNA)
RNA: B16 RNA with A29U
B24: Id_ii_S2_P5E.4_K5.3_C5.2_H5.3_A5.1_F5.1_T5.2_[T11C]_[A12C] (ssRNA)
RNA: B16 RNA with A29U, U40C, A41C
B25: Id_ii_S2_P5E.4_K5.3_C5.2_H5.3_A5.1_F5.1_T5.2_[T11G]_[A12C] (ssRNA)
RNA: B16 RNA with A29U, U40G, A41C
B26: Id_ii_S3_P3E.3_K3.2_C3.2_[C-2G]_H3.2_A3.1_F3.1_T3.2_[T9G]_[A10T] (ssRNA)
RNA: ACAAACGUUAUAUAUAGUACAAAC
B27: Id_ii_S3_P3E.3_K3.2_C3.2_[C-2G]_H3.2_A3.1_F3.1_T3.2_[A10T] (ssRNA)
RNA: ACAAACGUUAUAUAUAUUACAAAC
B28: Ib_S1_P5E.1_K5.1_C5.1_H5.1_A5.1_[A7T]_F5.1_[T9G]_T5.1 (ssRNA)
RNA: UCUCUUUGUAUUUUGAUCUCUU
B29: Id_ii_S3_P3E.3_K3.2_C3.2_[C-2G]_[T-1A]_H3.2_A3.1_F3.1_T3.2_[T9A]_[A10G] (ssRNA)
RNA: ACAAACGAUAUAUAUAAGACAAAC

Residue numbers refer to the chain shown, from its start. Names and notes keep the numbering of the source. Where only a bound is given, the exact number is not on record here.

For the series, the target named is T1, PUF4 RNA-binding domain. Kind of series: Mg; RNA-MaP; 20 mM Na-HEPES pH 7.4, 30 mM KOAc, 0.75 mM MgCl2, 0.1% Tween-20, 5% glycerol, 0.1 mg/mL BSA, 2 mM DTT; 25 C; 0.0125-409.6 nM protein. The conditions noted are these: tags: N-His6-TEV cleaved; C-SNAP kept, Cy3B-labelled; label: tethered on chip by stalled RNA polymerase.
In the case of B1, the affinity, expressed as Kd, was 599 nM.
As for B2, the figure is 1080 nM; as for B3, 595 nM; as for B4, 932 nM.
Consider B5, for which binding was put at a Kd of 45.1 nM.
Take B6: the dissociation constant Kd was found to be 925 nM.
In the case of B7, the Kd was 1040 nM.
For B8, the affinity, expressed as Kd, was 509 nM.
As for B9, the figure is 535 nM; as for B10, 839 nM; as for B11, 140 nM.
B12: the affinity, expressed as Kd, was 34.2 nM.
For the molecule B13, the Kd was 1130 nM.
The molecule B14 registered a Kd of 969 nM.
Next, B15: 552 nM; B16: 591 nM.
In turn, B17 came in with a Kd of over 2300 nM.
As for B18, the figure is over 2300 nM; as for B19, over 2300 nM.
On to B20, for which the Kd was over 2300 nM.
As to B21, the equilibrium dissociation constant (Kd) is over 2300 nM.
The molecule B22 had a Kd of 2240 nM.
As for B23, the figure is 548 nM; as for B24, over 2300 nM; as for B25, over 2300 nM.
Molecule B26 returned a Kd of 292 nM.
As for B27, the figure is 154 nM; as for B28, 17.1 nM.
As for B29, the figure is 786 nM.
